How the values were obtained:
HeLa Kyoto [1] = assay: solubility in G1/S (NP-40 vs SDS abundance) (log2 ratio); higher = more soluble; conditions: cell cycle stage: G1/S
HeLa Kyoto [2] = assay: melting temperature (median over replicates), in situ; higher = more thermally stable
HeLa Kyoto [3] = assay: solubility change mitosis vs G1/S (difference of NP-40 vs SDS log2 ratios) (log2 ratio difference); higher = more soluble in mitosis
HeLa Kyoto [4] = assay: thermal stability score vs G1/S (z-score of summed log2 fold changes over temperatures); higher = more thermally stable than in G1/S
[5] = cell cycle stage: early G1 (4.5 h after nocodazole release)
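For melting temperature (median over replicates), in situ in this document: HeLa Kyoto cells synchronized by double thymidine or nocodazole block, proteins quantified by TMT10plex mass spectrometry, three independent biological replicates.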
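For solubility change mitosis vs G1/S (difference of NP-40 vs SDS log2 ratios) in this document: synchronized HeLa Kyoto cells (double thymidine block for G1/S, nocodazole release for mitosis), protein amounts in NP-40 versus SDS lysates quantified by mass spectrometry, three biological replicates.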
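For solubility in G1/S (NP-40 vs SDS abundance) in this document: HeLa Kyoto cells arrested at G1/S by double thymidine block, proteins quantified by TMT10plex mass spectrometry in mild NP-40 versus SDS extracts, three biological replicates.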
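For thermal stability score vs G1/S (z-score of summed log2 fold changes over temperatures) in this document: synchronized HeLa Kyoto cells, proteins quantified by TMT10plex mass spectrometry, three biological replicates, mitosis taken 0.5 h after nocodazole release, G1/S directly after double thymidine block.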

RBPJ, sequence (chain, as listed by the source): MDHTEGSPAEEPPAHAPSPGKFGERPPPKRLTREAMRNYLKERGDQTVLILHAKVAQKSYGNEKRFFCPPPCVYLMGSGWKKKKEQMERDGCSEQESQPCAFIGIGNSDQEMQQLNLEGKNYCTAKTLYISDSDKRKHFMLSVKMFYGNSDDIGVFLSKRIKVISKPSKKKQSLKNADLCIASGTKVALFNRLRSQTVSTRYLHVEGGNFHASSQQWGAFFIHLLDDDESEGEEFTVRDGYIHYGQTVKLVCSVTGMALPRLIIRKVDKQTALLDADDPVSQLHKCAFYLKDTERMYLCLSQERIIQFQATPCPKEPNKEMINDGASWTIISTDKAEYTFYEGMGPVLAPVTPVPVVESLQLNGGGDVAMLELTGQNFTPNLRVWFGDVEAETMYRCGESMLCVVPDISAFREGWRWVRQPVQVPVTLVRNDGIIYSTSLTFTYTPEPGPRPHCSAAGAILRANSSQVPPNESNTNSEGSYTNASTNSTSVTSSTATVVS
ZMAT2, sequence (chain, as listed by the source): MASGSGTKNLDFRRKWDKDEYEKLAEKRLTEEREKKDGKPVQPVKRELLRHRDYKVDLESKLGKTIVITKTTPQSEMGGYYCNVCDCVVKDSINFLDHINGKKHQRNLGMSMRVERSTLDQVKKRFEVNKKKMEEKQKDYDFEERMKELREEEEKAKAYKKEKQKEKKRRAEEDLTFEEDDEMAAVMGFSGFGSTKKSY

MDPFLVLLHSVSSSLSSSELTELKFLCLGRVGKRKLERVQSGLDLFSMLLEQNDLEPGHTELLRELLASLRRHDLLRRVDDFEAGAAAGAAPGEEDLCAAFNVICDNVGKDWRRLARQLKVSDTKIDSIEDRYPRNLTERVRESLRIWKNTEKENATVAHLVGALRSCQMNLVADLVQEVQQARDLQNRSGAMSPMSWNSDASTSEAS [FADD]
solubility in G1/S (log2) (HeLa Kyoto [1]): -0.257 | melting temperature (HeLa Kyoto [2]; cell cycle stage: G1/S): 52.3 °C | melting temperature (HeLa Kyoto [2]; cell cycle stage: mitosis): 49.4 °C | solubility change mitosis (log2) (HeLa Kyoto [3]): -0.0735 | thermal stability score (HeLa Kyoto [4]; [5]): -0.0741 | thermal stability score (HeLa Kyoto [4]; cell cycle stage: mitosis): 1.4

MCDLRRPAAGGMMDLAYVCEWEKWSKSTHCPSVPLACAWSCRNLIAFTMDLRSDDQDLTRMIHILDTEHPWDLHSIPSEHHEAITCLEWDQSGSRLLSADADGQIKCWSMADHLANSWESSVGSLVEGDPIVALSWLHNGVKLALHVEKSGASSFGEKFSRVKFSPSLTLFGGKPMEGWIAVTVSGLVTVSLLKPSGQVLTSTESLCRLRGRVALADIAFTGGGNIVVATADGSSASPVQFYKVCVSVVSEKCRIDTEILPSLFMRCTTDLNRKDKFPAITHLKFLARDMSEQVLLCASSQTSSIVECWSLRKEGLPVNNIFQQISPVVGDKQPTILKWRILSATNDLDRVSAVALPKLPISLTNTDLKVASDTQFYPGLGLALAFHDGSVHIVHRLSLQTMAVFYSSAAPRPVDEPAMKRPRTAGPAVHLKAMQLSWTSLALVGIDSHGKLSVLRLSPSMGHPLEVGLALRHLLFLLEYCMVTGYDWWDILLHVQPSMVQSLVEKLHEEYTRQTAALQQVLSTRILAMKASLCKLSPCTVTRVCDYHTKLFLIAISSTLKSLLRPHFLNTPDKSPGDRLTEICTKITDVDIDKVMINLKTEEFVLDMNTLQALQQLLQWVGDFVLYLLASLPNQGSLLRPGHSFLRDGTSLGMLRELMVVIRIWGLLKPSCLPVYTATSDTQDSMSLLFRLLTKLWICCRDEGPASEPDEALVDECCLLPSQLLIPSLDWLPASDGLVSRLQPKQPLRLQFGRAPTLPGSAATLQLDGLARAPGQPKIDHLRRLHLGACPTEECKACTRCGCVTMLKSPNRTTAVKQWEQRWIKNCLAVEGRGPDACVTSRASEEAPAFVQLGPQSTHHSPRTPRSLDHLHPEDRP [MED16]
solubility in G1/S (log2) (HeLa Kyoto [1]): -0.121 | melting temperature (HeLa Kyoto [2]; cell cycle stage: G1/S): 52.2 °C | melting temperature (HeLa Kyoto [2]; cell cycle stage: mitosis): 52 °C | solubility change mitosis (log2) (HeLa Kyoto [3]): -0.185 | thermal stability score (HeLa Kyoto [4]; [5]): 0.307 | thermal stability score (HeLa Kyoto [4]; cell cycle stage: mitosis): 0.64

LAMB1
solubility in G1/S (log2) (HeLa Kyoto [1]): 0.0818 | melting temperature (HeLa Kyoto [2]; cell cycle stage: G1/S): 53.6 °C | melting temperature (HeLa Kyoto [2]; cell cycle stage: mitosis): 54.2 °C | solubility change mitosis (log2) (HeLa Kyoto [3]): -0.0866 | thermal stability score (HeLa Kyoto [4]; [5]): 3.04 | thermal stability score (HeLa Kyoto [4]; cell cycle stage: mitosis): 4.45

ZMAT2
solubility in G1/S (log2) (HeLa Kyoto [1]): -0.324 | melting temperature (HeLa Kyoto [2]; cell cycle stage: G1/S): 57.8 °C | melting temperature (HeLa Kyoto [2]; cell cycle stage: mitosis): 54.3 °C | solubility change mitosis (log2) (HeLa Kyoto [3]): 0.427 | thermal stability score (HeLa Kyoto [4]; [5]): 1.39 | thermal stability score (HeLa Kyoto [4]; cell cycle stage: mitosis): -4.93

RBPJ
solubility in G1/S (log2) (HeLa Kyoto [1]): -0.198 | melting temperature (HeLa Kyoto [2]; cell cycle stage: G1/S): 54.8 °C | melting temperature (HeLa Kyoto [2]; cell cycle stage: mitosis): 54.4 °C | solubility change mitosis (log2) (HeLa Kyoto [3]): 0.039 | thermal stability score (HeLa Kyoto [4]; [5]): 0.21 | thermal stability score (HeLa Kyoto [4]; cell cycle stage: mitosis): -0.976

MAAAAASAPQQLSDEELFSQLRRYGLSPGPVTESTRPVYLKKLKKLREEEQQQHRSGGRGNKTRNSNNNNTAAATVAAAGPAAAAAAGMGVRPVSGDLSYLRTPGGLCRISASGPESLLGGPGGASAAPAAGSKVLLGFSSDESDVEASPRDQAGGGGRKDRASLQYRGLKAPPAPLAASEVTNSNSAERRKPHSWWGARRPAGPELQTPPGKDGAVEDEEGEGEDGEERDPETEEPLWASRTVNGSRLVPYSCRENYSDSEEEDDDDVASSRQVLKDDSLSRHRPRRTHSKPLPPLTAKSAGGRLETSVQGGGGLAMNDRAAAAGSLDRSRNLEEAAAAEQGGGCDQVDSSPVPRYRVNAKKLTPLLPPPLTDMDSTLDSSTGSLLKTNNHIGGGAFSVDSPRIYSNSLPPSAAVAASSSLRINHANHTGSNHTYLKNTYNKPKLSEPEEELLQQFKREEVSPTGSFSAHYLSMFLLTAACLFFLILGLTYLGMRGTGVSEDGELSIENPFGETFGKIQESEKTLMMNTLYKLHDRLAQLAGDHECGSSSQRTLSVQEAAAYLKDLGPEYEGIFNTSLQWILENGKDVGIRCVGFGPEEELTNITDVQFLQSTRPLMSFWCRFRRAFVTVTHRLLLLCLGVVMVCVVLRYMKYRWTKEEEETRQMYDMVVKIIDVLRSHNEACQENKDLQPYMPIPHVRDSLIQPHDRKKMKKVWDRAVDFLAANESRVRTETRRIGGADFLVWRWIQPSASCDKILVIPSKVWQGQAFHLDRRNSPPNSLTPCLKIRNMFDPVMEIGDQWHLAIQEAILEKCSDNDGIVHIAVDKNSREGCVYVKCLSPEYAGKAFKALHGSWFDGKLVTVKYLRLDRYHHRFPQALTSNTPLKPSNKHMNSMSHLRLRTGLTNSQGSS [LEMD3]
solubility in G1/S (log2) (HeLa Kyoto [1]): 0.0762 | melting temperature (HeLa Kyoto [2]; cell cycle stage: G1/S): 49.1 °C | melting temperature (HeLa Kyoto [2]; cell cycle stage: mitosis): 50.5 °C | solubility change mitosis (log2) (HeLa Kyoto [3]): -0.0382 | thermal stability score (HeLa Kyoto [4]; [5]): 2.33 | thermal stability score (HeLa Kyoto [4]; cell cycle stage: mitosis): 3.33

MRRMWATQGLAVALALSVLPGSRALRPGDCEVCISYLGRFYQDLKDRDVTFSPATIENELIKFCREARGKENRLCYYIGATDDAATKIINEVSKPLAHHIPVEKICEKLKKKDSQICELKYDKQIDLSTVDLKKLRVKELKKILDDWGETCKGCAEKSDYIRKINELMPKYAPKAASARTDL [MANF]
solubility in G1/S (log2) (HeLa Kyoto [1]): 0.682 | melting temperature (HeLa Kyoto [2]; cell cycle stage: G1/S): 54.1 °C | melting temperature (HeLa Kyoto [2]; cell cycle stage: mitosis): 52.7 °C | solubility change mitosis (log2) (HeLa Kyoto [3]): 0.0195 | thermal stability score (HeLa Kyoto [4]; [5]): -0.366 | thermal stability score (HeLa Kyoto [4]; cell cycle stage: mitosis): -3.76
